Laboratory results taken from doi:10.1101/142505, “14-3-3 Negatively Regulates Actin Filament Formation in the Deep Branching Eukaryote Giardia lamblia” (bioRxiv, 2017).

Molecular target: the molecule itself
Assay: native gel or EMSA; TS-actin and associated proteins eluted from StrepTactin resin with 2 mM biotin, run at once on 4-16% NativePAGE, western blot; also samples crosslinked with DSP before lysis

B1: Gl14-3-3-HA (endogenously C-terminally 3XHA tagged Gl14-3-3) (natural protein, Giardia lamblia, UniProt E2RU97 1-248, looked up)
chain: MAEAFTREDYVFMAQLNENAERYDEMVETMRKISGMEGELSDKERNLLSVAYKNVIGPRRAAWRIVSSIEAKEKGRQKPNAKRIEQIRVYRQKIEKELSDICNDILKLLQEQFVPRSTNADAKVFYYKMQGDYYRYLAEYSSGEDKEKIAGSALNAYNSAFEISQQLPPTHPIRLGLALNFSVFYYEILASPDRACELARKAFDAAITDLDKLTEESYKDSTLIMQLLRDNLNLWVTDSAGDDNAEEK
notes: the single 14-3-3 homolog of Giardia (Gl14-3-3), GL50803_6430; source: Giardia trophozoites, endogenously tagged, in lysate; not shown: 3XHA, C-terminal, kept
  stoichiometry N: 2
